For test [1], the target named is T1, human transglutaminase type 2 (TG2) (human, UniProt P21980 1-687).
T1 construct: Recombinant full-length human TG2 (Zedira; cat; T002 in the Biacore work); Also used here for the endogenous TG2 of HepG2 lysate and HK-2 cells; also called hTG2; rhTG2
T1 sequence: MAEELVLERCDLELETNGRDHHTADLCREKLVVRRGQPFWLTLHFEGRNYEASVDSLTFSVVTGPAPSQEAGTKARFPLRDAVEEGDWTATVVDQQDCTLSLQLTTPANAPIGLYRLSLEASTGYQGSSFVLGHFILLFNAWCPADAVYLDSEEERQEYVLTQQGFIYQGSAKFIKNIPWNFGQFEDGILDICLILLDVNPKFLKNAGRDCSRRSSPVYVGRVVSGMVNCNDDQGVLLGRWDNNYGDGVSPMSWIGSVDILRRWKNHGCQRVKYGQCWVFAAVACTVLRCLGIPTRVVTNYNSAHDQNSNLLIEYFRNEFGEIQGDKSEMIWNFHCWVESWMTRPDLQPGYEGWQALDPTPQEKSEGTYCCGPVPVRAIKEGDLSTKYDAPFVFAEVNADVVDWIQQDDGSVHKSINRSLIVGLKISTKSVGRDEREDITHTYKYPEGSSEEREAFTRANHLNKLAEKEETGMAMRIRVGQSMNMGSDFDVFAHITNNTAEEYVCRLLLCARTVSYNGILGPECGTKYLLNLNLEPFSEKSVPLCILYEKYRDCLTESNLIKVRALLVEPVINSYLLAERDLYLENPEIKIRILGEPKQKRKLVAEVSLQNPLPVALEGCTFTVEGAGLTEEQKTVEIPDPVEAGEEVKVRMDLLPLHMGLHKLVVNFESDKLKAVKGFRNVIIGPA
As to the kind of experiment: ELISA on immobilised human TG2; r2 0.998; EC50 95% confidence range 0.1860 to 0.2368 [panel A]. As to the method:
(§1) Antibody binding to human and cynomolgus monkey TG2 was determined in an ELISA assay. Clear polystyrene "Maxisorp" 96-well plates (Nunc) were coated with 50 ng purified human or cynomogulus monkey TG2 in 50 µl 0.05 M carbonate-bicarbonate buffer pH 9.6 at 4° C. overnight. Control wells were coated with 50 µl 100 µg/ml bovine serum albumin (BSA). Plates were washed 3× with 300 µl phosphate-buffered saline pH7.4 (PBS) containing 0.1% Tween 20 (PBST) and blocked with 300 µl 3% w/v Marvel skimmed milk in PBS for 1 hour at room temperature. After 3× wash with PBST, 50 µl protein-A purified chimeric or humanised anti-TG2 antibodies or human IgG1 kappa […] control antibody or CUB7402 (Abcam) were serially diluted 4-fold from a top concentration of 50 nM in PBS, and added to the plate in duplicate. […] After 3× washes with PBST, the plates were developed with 50 µl TMB substrate (Sigma) for 5 min at room temperature before stopping the reaction with 25 µl 0.5M H2SO4 and reading absorbance at 450 nm in a microtiter plate reader (BioTek EL808). Dose response curves were analysed and EC50 values and other statistical parameters determined using a 4-parameter logistical fit of the data (GraphPad Prism).
In general terms: ELISA stands for enzyme-linked immunosorbent assay.

In test [2] the target is T2, cynomolgus monkey TG2 (cynomolgus monkey, UniProt A0A2K5VXI8 1-687).
T2 construct: Bought recombinant protein; also called cynomogulus monkey TG2; cyano TG2
T2 sequence: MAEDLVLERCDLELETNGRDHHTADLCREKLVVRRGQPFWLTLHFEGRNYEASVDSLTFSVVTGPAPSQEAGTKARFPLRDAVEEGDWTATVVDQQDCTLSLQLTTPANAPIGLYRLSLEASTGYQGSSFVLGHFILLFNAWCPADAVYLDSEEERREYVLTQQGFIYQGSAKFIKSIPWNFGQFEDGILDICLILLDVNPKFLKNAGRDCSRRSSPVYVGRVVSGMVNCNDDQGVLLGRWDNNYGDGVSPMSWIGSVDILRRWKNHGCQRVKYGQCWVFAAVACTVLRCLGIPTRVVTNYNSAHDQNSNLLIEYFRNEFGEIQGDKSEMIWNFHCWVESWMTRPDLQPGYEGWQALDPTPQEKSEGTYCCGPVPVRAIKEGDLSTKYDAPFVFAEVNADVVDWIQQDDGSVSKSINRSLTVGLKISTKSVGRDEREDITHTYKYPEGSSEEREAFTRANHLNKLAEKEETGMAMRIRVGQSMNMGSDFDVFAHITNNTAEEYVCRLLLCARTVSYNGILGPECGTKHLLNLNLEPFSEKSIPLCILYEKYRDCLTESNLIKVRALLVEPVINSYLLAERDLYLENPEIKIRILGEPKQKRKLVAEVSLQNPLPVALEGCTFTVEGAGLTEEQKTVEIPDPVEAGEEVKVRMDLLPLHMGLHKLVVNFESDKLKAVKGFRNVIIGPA
As to the kind of experiment: ELISA on immobilised cynomolgus monkey TG2; r2 0.9992; EC50 95% confidence range 0.3040 to 0.3536 [panel A]. As to the method: as §1

B1: cDD9001 chimeric antibody (murine DD9 variable regions) (antibody, human IgG1, V domains shown)
VH: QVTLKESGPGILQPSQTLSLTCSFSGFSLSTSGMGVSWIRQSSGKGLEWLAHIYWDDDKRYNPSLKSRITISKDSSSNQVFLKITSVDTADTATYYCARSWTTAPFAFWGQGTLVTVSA
VL: QIVLTQSPAIMSASPGEKVTMTCSASSSVDYMYWYQQKPGSSPRLLIYDTSNLASGVPVRFSGSGSGTSYSLTISRMGAEDAATYYCQQWNSSPLTFGAGTKLELK
Usually EC50 stands for the concentration that produces a half-maximal response. Consider B1, for which the concentration giving a half-maximal response (EC50) in test [1] turned out to be 0.21 nM; in test [2], 0.328 nM.

Values taken from patent US10005846 (LIFEARC, dated 2018).
